Data published in patent US20170081400A1 (CEPHALON, published 2017).

T1: human TL1A extracellular domain with N-terminal HIS and FLAG tag (human) (UniProt O95150)
T1 sequence: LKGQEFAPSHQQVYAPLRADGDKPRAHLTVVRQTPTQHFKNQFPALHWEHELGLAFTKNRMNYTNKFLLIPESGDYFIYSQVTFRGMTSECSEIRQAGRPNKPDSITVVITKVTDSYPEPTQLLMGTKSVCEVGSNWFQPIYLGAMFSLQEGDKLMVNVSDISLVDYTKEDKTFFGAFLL

T2: human TL1A extracellular domain with N-terminal HIS and FLAG tag (human, UniProt O95150 72-251)
T2 construct: whole entry named. ~70 kDa fraction purified by gel filtration
T2 sequence: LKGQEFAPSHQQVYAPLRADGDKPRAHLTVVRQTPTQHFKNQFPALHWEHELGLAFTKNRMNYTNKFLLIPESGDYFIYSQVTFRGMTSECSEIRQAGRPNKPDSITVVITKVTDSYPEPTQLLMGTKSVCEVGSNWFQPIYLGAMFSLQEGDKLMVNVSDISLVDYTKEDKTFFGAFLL

T3: human TL1A extracellular domain with N-terminal HIS and FLAG tag (human, UniProt O95150 72-251)
T3 construct: the whole entry is named; also called TNFSF15
T3 sequence: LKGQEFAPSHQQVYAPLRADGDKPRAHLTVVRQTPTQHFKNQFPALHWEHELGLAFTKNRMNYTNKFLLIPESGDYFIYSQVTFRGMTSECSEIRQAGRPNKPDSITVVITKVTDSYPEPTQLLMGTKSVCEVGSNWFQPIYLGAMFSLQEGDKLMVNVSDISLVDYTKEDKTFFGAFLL


Key:
[1] = molecular target: T1, human TL1A extracellular domain with N-terminal HIS and FLAG tag (human); experiment: cell-based or functional assay
[2] = molecular target: T2, human TL1A extracellular domain with …; experiment: SPR run 3; supernatant on Protein A; TL1A 10 ug/mL; timepoint 59
From the text: (§1) 1.5. Antibody expression and antigen binding as determined by SPR. Using a CM5 sensor chip (GE Healthcare) Protein A (Pierce) was coupled to the chip surface using an amine coupling kit (GE Healthcare). Protein A was coupled on flow cell 1 and 2 (or alternatively 3 and 4) using a BIACORE® T200. […] The amount of supernatant or purified protein (as well as the concentration) injected during the capture stage varied between runs and is specified in the header of the Tables 3-11. At the end of injection of the supernatant or purified antibody the change in response units was measured. This value was reported as Capture Level in Tables 3-11. […] The response units were measured prior to the end of the dissociation phase. […] The sensorgrams were double referenced (flow cell 2 is subtracted from flow cell 1 and a buffer blank). As there were a large number of antibody variants to screen, these were screened across different runs (Tables 3-11). […] A summary of the conditions used in each run is below:
(§2) 2.1. […] In some experiment the antibodies were purified using Protein A chromatography (See 1.4) and purified antibodies were used in BIACORE® (GE Healthcare) experiments.

[3] = molecular target: T2, human TL1A extracellular domain with …; experiment: SPR run 3; supernatant on Protein A; TL1A 10 ug/mL; timepoint 590
From the text: as §1, §2

[4] = molecular target: T3, human TL1A extracellular domain with …; experiment: SPR Run 9, antibody on Protein A, TL1A 5 ug/mL, timepoint 590
From the text: as §1, §2

[5] = molecular target: T3, human TL1A extracellular domain with …; experiment: SPR Run 9, antibody on Protein A, TL1A 5 ug/mL, timepoint 44
From the text: as §1, §2

Binder | Antibody IC50, TL1A induced caspase potency assay in TF-1 cells [1] [ng/mL] | Fold improvement over 320-179, TL1A induced caspase potency assay in TF-1 cells [1] [fold] | TL1A Binding Level (Early) [2] [RU] | TL1A Binding Level (Late) [3] [RU] | TL1A Binding Level (Late) [4] [RU] | TL1A Binding Level (Early) [5] [RU]
320-263 (antibody, human IgG1, name in Kabat numbering, V domains shown, human IgG1, lambda) VH: QVQLVQSGAEVKKPGASVKVSCKASGYTFTSYDINWVRQAPGQGLEWMGWLNPNSGNTGYAQKFQGRVTMTADRSTSTAYMELSSLRSEDTAVYYCAREVPETAAFEYWGQGTLVTVSS VL: QSVLTQPPSVSGAPGQRVTISCTSSSSDIGKGLGVHWYQQLPGTAPKLLIEGYYNRPSGVPDRFSGSKSGTSASLTITGLLPEDEGDYYCQSYDGTLSALFGGGTKLTVLG | 3 | 3 | 121 | 123 |  | 
320-280 (antibody, human IgG1, name in Kabat numbering, V domains shown, human IgG1, lambda) VH: QVQLVQSGAEVKKPGASVKVSCKASGYTFTSYDINWVRQAPGQGLEWMGWLNPNSGNTGYAQKFQGRVTMTADRSTSTAYMELSSLRSEDTAVYYCAREVPETAAFEYWGQGTLVTVSS VL: QSVLTQPPSVSGAPGQRVTISCTSSSSDIGAGHGVHWYQQLPGTAPKLLIEGYYNRPSGVPDRFSGSKSGTSASLTITGLLPEDEGDYYCQSYDGTLSALFGGGTKLTVLG | 6 | 3 | 228 | 211 |  | 
320-267 (antibody, human IgG1, V domains shown, human IgG1, lambda) VH: QVQLVQSGAEVKKPGASVKVSCKASGYTFTSYDINWVRQAPGQGLEWMGWLNPNSGNTGYAQKFQGRVTMTADRSTSTAYMELSSLRSEDTAVYYCAREVPETAAFEYWGQGTLVTVSS VL: QSVLTQPPSVSGAPGQRVTISCTSSSSDIGAALGVHWYQQLPGTAPKLLIEGYYNRPSGVPDRFSGSKSGTSASLTITGLLPEDEGDYYCQSYDGTLSALFGGGTKLTVLG |  |  | 299 | 297 |  | 
320-277 (antibody, human IgG1, V domains shown, human IgG1, lambda) VH: QVQLVQSGAEVKKPGASVKVSCKASGYTFTSYDINWVRQAPGQGLEWMGWLNPNSGNTGYAQKFQGRVTMTADRSTSTAYMELSSLRSEDTAVYYCAREVPETAAFEYWGQGTLVTVSS VL: QSVLTQPPSVSGAPGQRVTISCTSSSSDIGAGSGVHWYQQLPGTAPKLLIEGYYNRPSGVPDRFSGSKSGTSASLTITGLLPEDEGDYYCQSYDGTLSALFGGGTKLTVLG |  |  | 387 | 361 |  | 
320-302 (antibody, human IgG1, name in Kabat numbering, V domains shown, human IgG1, lambda) VH: QVQLVQSGAEVKKPGASVKVSCKASGYTFTSYDINWVRQAPGQGLEWMGWLNPNSGNTGYAQKFQGRVTMTADRSTSTAYMELSSLRSEDTAVYYCAREVPETAAFEYWGQGTLVTVSS VL: QSVLTQPPSVSGAPGQRVTISCTSSSSDIGAGLGVAWYQQLPGTAPKLLIEGYYNRPSGVPDRFSGSKSGTSASLTITGLLPEDEGDYYCQSYDGTLSALFGGGTKLTVLG | 10 | 2 | 99 | 74 |  | 
320-310 (antibody, human IgG1, name in Kabat numbering, V domains shown, human IgG1, lambda) VH: QVQLVQSGAEVKKPGASVKVSCKASGYTFTSYDINWVRQAPGQGLEWMGWLNPNSGNTGYAQKFQGRVTMTADRSTSTAYMELSSLRSEDTAVYYCAREVPETAAFEYWGQGTLVTVSS VL: QSVLTQPPSVSGAPGQRVTISCTSSSSDIGAGLGVHWYQQLPGTAPKLLIEGYYNRPSGVPDRFSGSKSGTSASLTITGLLPEDEGDYYCASYDGTLSALFGGGTKLTVLG |  |  | 70 | 62 |  | 
320-278 (antibody, human IgG1, V domains shown, human IgG1, lambda) VH: QVQLVQSGAEVKKPGASVKVSCKASGYTFTSYDINWVRQAPGQGLEWMGWLNPNSGNTGYAQKFQGRVTMTADRSTSTAYMELSSLRSEDTAVYYCAREVPETAAFEYWGQGTLVTVSS VL: QSVLTQPPSVSGAPGQRVTISCTSSSSDIGAGQGVHWYQQLPGTAPKLLIEGYYNRPSGVPDRFSGSKSGTSASLTITGLLPEDEGDYYCQSYDGTLSALFGGGTKLTVLG |  |  | 389 | 374 |  | 
320-307 (antibody, human IgG1, name in Kabat numbering, V domains shown, human IgG1, lambda) VH: QVQLVQSGAEVKKPGASVKVSCKASGYTFTSYDINWVRQAPGQGLEWMGWLNPNSGNTGYAQKFQGRVTMTADRSTSTAYMELSSLRSEDTAVYYCAREVPETAAFEYWGQGTLVTVSS VL: QSVLTQPPSVSGAPGQRVTISCTSSSSDIGAGLGVLWYQQLPGTAPKLLIEGYYNRPSGVPDRFSGSKSGTSASLTITGLLPEDEGDYYCQSYDGTLSALFGGGTKLTVLG | 10 | 4 | 216 | 200 |  | 

Other lines, results leading:

Antibody IC50, TL1A induced caspase potency assay in TF-1 cells [1] [ng/mL] | Fold improvement over 320-179, TL1A induced caspase potency assay in TF-1 cells [1] [fold] | TL1A Binding Level (Early) [2] [RU] | TL1A Binding Level (Late) [3] [RU] | TL1A Binding Level (Late) [4] [RU] | TL1A Binding Level (Early) [5] [RU] | Binder
 |  |  |  | 105 | 115 | 320-597 (antibody, human IgG1, name in Kabat numbering, V domains shown, full-length human IgG1, lambda) VH: QVQLVQSGAEVKKPGASVKVSCKASGYTFTSYDINWVRQAPGQGLEWMGWLNPNSGNTGYAQKFQGRVTMTADRSTSTAYMELSSLRSEDTAVYYCAREVPETAAFEYWGQGTLVTVSS VL: QSVLTQPPSVSGAPGQRVTISCTSSSSDIGAGQGVHWYQQLPGTAPKLLIEGYYNRPSGVPDRFSGSKSGTSASLTITGLLPEDEGDYYCQSFDGTLSALFGGGTKLTVLG
5 | 4 | 95 | 77 |  |  | 320-297 (antibody, human IgG1, name in Kabat numbering, V domains shown, human IgG1, lambda) VH: QVQLVQSGAEVKKPGASVKVSCKASGYTFTSYDINWVRQAPGQGLEWMGWLNPNSGNTGYAQKFQGRVTMTADRSTSTAYMELSSLRSEDTAVYYCAREVPETAAFEYWGQGTLVTVSS VL: QSVLTQPPSVSGAPGQRVTISCTSSSSDIGAGLGHHWYQQLPGTAPKLLIEGYYNRPSGVPDRFSGSKSGTSASLTITGLLPEDEGDYYCQSYDGTLSALFGGGTKLTVLG
 |  | 47 | 40 |  |  | 320-309 (antibody, human IgG1, name in Kabat numbering, V domains shown, human IgG1, lambda) VH: QVQLVQSGAEVKKPGASVKVSCKASGYTFTSYDINWVRQAPGQGLEWMGWLNPNSGNTGYAQKFQGRVTMTADRSTSTAYMELSSLRSEDTAVYYCAREVPETAAFEYWGQGTLVTVSS VL: QSVLTQPPSVSGAPGQRVTISCTSSSSDIGAGLGVYWYQQLPGTAPKLLIEGYYNRPSGVPDRFSGSKSGTSASLTITGLLPEDEGDYYCQSYDGTLSALFGGGTKLTVLG
 |  |  |  | 101 | 112 | 320-598 (antibody, human IgG1, name in Kabat numbering, V domains shown, full-length human IgG1, lambda) VH: QVQLVQSGAEVKKPGASVKVSCKASGYTFTSYDINWVRQAPGQGLEWMGWLNPNSGNTGYAQKFQGRVTMTADRSTSTAYMELSSLRSEDTAVYYCAREVPETAAFEYWGQGTLVTVSS VL: QSVLTQPPSVSGAPGQRVTISCTSSSSDIGAGLGVLWYQQLPGTAPKLLIEGYYNRPSGVPDRFSGSKSGTSASLTITGLLPEDEGDYYCQSFDGTLSALFGGGTKLTVLG
 |  |  |  | 85 | 95 | 320-596 (antibody, human IgG1, name in Kabat numbering, V domains shown, full-length human IgG1, lambda) VH: QVQLVQSGAEVKKPGASVKVSCKASGYTFTSYDINWVRQAPGQGLEWMGWLNPNSGNTGYAQKFQGRVTMTADRSTSTAYMELSSLRSEDTAVYYCAREVPETAAFEYWGQGTLVTVSS VL: QSVLTQPPSVSGAPGQRVTISCTSSSSDIGAGLGVHWYQQLPGTAPKLLIEGYYNRPSGVPDRFSGSKSGTSASLTITGLLPEDEGDYYCQSFDGTLSALFGGGTKLTVLG
